# Experimental data taken from patent publication US20210032291A1 (University of Pennsylvania, published 2021).
# Bridge positions count the residues as written; N and C are the ends. Square brackets hold non-standard residues; d marks the D form. Ends that are not written are not given here. Trp(1-Me) = Cn1cc(C[C@H](N)C(=O)O)c2ccccc21; NMeI = CC[C@H](C)[C@H](NC)C(=O)O; Orn = NCCC[C@H](N)C(=O)O; Sar = CNCC(=O)O
# B1: Compstatin 30 (Cp30): Sar-Ile-[Cys-Val-Trp(Me)-Gln-Asp-Trp-Sar-Ala-His-Arg-Cys]-mIle-NH2 (peptide)
# peptide: GICVWQDWGAHRCI
# modifications: Sar (N-methyl-Gly) at Xaa0 (N-terminus); Trp(Me) at position 4; Sar at position 8; mIle at position 13; C-terminal -NH2; cyclic via Cys2-Cys12 disulfide (compstatin position numbering)
# B2: 4(1MeW): Ac-Ile-[Cys-Val-Trp(Me)-Gln-Asp-Trp-Gly-Ala-His-Arg-Cys]-Thr-NH2 (peptide)
# peptide: Ac-ICV[Trp(1-Me)]QDWGAHRCT-NH2
# modifications: disulfide 2-12
# B3: Peptide 2: Gly-Ile-[Cys-Val-Trp(Me)-Gln-Asp-Trp-Sar-Ala-His-Arg-Cys]-mIle-NH2 (peptide)
# peptide: GICV[Trp(1-Me)]QDW[Sar]AHRC[NMeI]-NH2
# modifications: disulfide 3-13; N-terminus assumed
# SMILES: CC[C@H](C)[C@H](NC(=O)CN)C(=O)N[C@H]1CSSC[C@@H](C(=O)N(C)[C@H](C(N)=O)[C@@H](C)CC)NC(=O)[C@H](CCCNC(=N)N)NC(=O)[C@H](Cc2c[nH]cn2)NC(=O)[C@H](C)NC(=O)CN(C)C(=O)[C@H](Cc2c[nH]c3ccccc23)NC(=O)[C@H](CC(=O)O)NC(=O)[C@H](CCC(N)=O)NC(=O)[C@H](Cc2cn(C)c3ccccc23)NC(=O)[C@H](C(C)C)NC1=O
# B4: Peptide 1: Me-Ile-[Cys-Val-Trp(Me)-Gln-Asp-Trp-Sar-Ala-His-Arg-Cys]-mIle-NH2 (peptide)
# peptide: Me-ICVWQDW[Sar]AHRC[NMeI]-NH2
# modifications: disulfide 2-12; not fully specified (residue 4); printed as Me-Ile-[Cys-Val-Trp(Me)-Gln-Asp-Trp-Sar-Ala-His-Arg-Cys]-mIle-NH2
# B5: Peptide 4: Tyr-Ile-[Cys-Val-Trp(Me)-Gln-Asp-Trp-Sar-Ala-His-Arg-Cys]-mIle-NH2 (peptide)
# peptide: YICV[Trp(1-Me)]QDW[Sar]AHRC[NMeI]-NH2
# modifications: disulfide 3-13
# B6: Cp40 (11Orn 6Asn) (peptide)
# peptide: [dY]ICV[Trp(1-Me)]QNW[Sar]AH[Orn]C[NMeI]-NH2
# modifications: disulfide 3-13
# B7: Cp40 (11Orn) (peptide)
# peptide: [dY]ICV[Trp(1-Me)]QDW[Sar]AH[Orn]C[NMeI]-NH2
# modifications: disulfide 3-13
# B8: Cp40 (6Asn) (peptide)
# peptide: [dY]ICV[Trp(1-Me)]QNW[Sar]AHRC[NMeI]-NH2
# modifications: disulfide 3-13; N-terminus assumed
# SMILES: CC[C@H](C)[C@H](NC(=O)[C@H](N)Cc1ccc(O)cc1)C(=O)N[C@H]1CSSC[C@@H](C(=O)N(C)[C@H](C(N)=O)[C@@H](C)CC)NC(=O)[C@H](CCCNC(=N)N)NC(=O)[C@H](Cc2c[nH]cn2)NC(=O)[C@H](C)NC(=O)CN(C)C(=O)[C@H](Cc2c[nH]c3ccccc23)NC(=O)[C@H](CC(N)=O)NC(=O)[C@H](CCC(N)=O)NC(=O)[C@H](Cc2cn(C)c3ccccc23)NC(=O)[C@H](C(C)C)NC1=O
# Target: T1, C3 protein (target in the classical-pathway complement activation ELISA)
# Assay: cell-based or functional assay
row,Binder,"IC50, peptide concentration to reach 50% inhibition of classical pathway complement activation (ELISA)"
1,B1,82 nM
2,B2,132 nM
3,B3,113 nM
4,B4,180 nM
5,B5,72 nM

# Target: T1, C3 protein (target in the …)
# Assay: cell-based or functional assay
# Remark: another data set of the same source
row,Binder,"IC50, peptide concentration to reach 50% inhibition of classical pathway complement activation"
1,B6,0.36 nM
2,B7,0.22 nM
3,B8,0.26 nM
